Data as given in the DeepSol protein solubility set.

Experiment: soluble on expression in E. coli; label from the status in PepcDB or PDB records

Sequence | soluble on expression in E. coli
MEASRLLLLEDSSVDAELIEDQLSRLSPPPAVTRAVGKASFIEALEKQQFDIILADFSLPDFDGMSALDLVMRTRPDTPFIFVSGILGEDAAIDAFRRGATDYVLKQRLVRLPSAVERALAEAREKQERKRAELHKELLVRELSHRVKNTMAMVVSIIRRTAKGSTSIKDYQERLVARVSALAESHALLFQSNWGETNLRDVVKRAIEPHNTFASRVELEGPDGVHVSPKSALALGMILHELATNAQKYGSLSGANGKVEVFWKKILNGDGNDCIDLRWQESGGPPVSVPQDTGFGTTLITRGVQYELQAESEIRYDPDGLQYRVIFPLD | not soluble
MEAVKTFNSELYSLNDYKPPISKAKMTQITKAAIKAIKFYKHVVQSVEKFIQKCKPEYKVPGLYVIDSIVRQSRHQFGQEKDVFAPRFSNNIISTFQNLYRCPGDDKSKIVRVLNLWQKNNVFKSEIIQPLLDMAAALEHHHHHH | soluble
MEAVVVEREAKGMKEIAIQEKDLTLQWRGNTGKLVKVRLKNTRAMEMWYNKQITEENIQEITTLNIIKNGKSLALEVYPEKSIYVKPNLGRINVPVFFIKTPINRGVFEEIFGETLKA | soluble
MEDDDLLPLSALQHYLYCPRQCALIHLEQQWEDNAQTAEGRLLHERADKPAMETRRGVRTASAMALASPRLGIAGVADIVEFHDWSDGERAYPVEYKRGRPKAHRADEVQLCAQALCLEDMLGAAIPEGALYYGKTRRRRPVAFDNALRRLTLETIAAARAMFDSRQTPRMGYEARRCDACSLLERCQPRLLDRAQSVDQWLKQQWDALEHHHHHH | not soluble
MEDGDSAEAFRAFAAGVALQREDPSPLWVQLKNRIEHAILDGTLPENARLPSEQAMCSMFDLSRPVIRNALQALAGEGRVIKQPRKGMFVAPRAPELAFMTSALGVFDDLSAKGYKVTVKTYEFGLHPANEDERRVFKLPEGFQVIRALRVYHANETPLTHTLISLPAHRLPGFEKLDMEGRSIFGTIRELYGLTVARADRWLKGAIVPPEVAARMGVPPGGAMIAIESVAYDHDGNALEYYRAYYNSEVAPIHVATDAH | not soluble
MEDKNSVIVFKNVSFQYQSDASFTLKDVSFNIPKGQWTSIVGHNGSGKSTIAKLMIGIEKVKSGEIFYNNQAITDDNFEKLRKDIGIVFQNPDNQFVGSIVKYDVAFGLENHAVPYDEMHRRVSEALKQVDMLERADYEPNALSGGQKQRVAIASVLALNPSVIILDEATSMLDPDARQNLLDLVRKVKSEHNITIISITHDLSEAMEADHVIVMNKGTVYKEGTATEIFDNAEELTRIGLDLPFPIKINQMLGHQTSFLTYEGLVDQL | not soluble
MEDNRLVINRHRATQVLFQLVNISTQLSYQFFCKDSVLLLRIVQKIQSNSWLTSCCARKTVTTLRIKTQPANNKH | not soluble
MEDPVTGPEEVSGQEQGSLTVQCRYTSGWKDYKKYWCQGVPQRSCKTLVETDASEQLVKKNRVSIRDNQRDFIFTVTMEDLRMSDAGIYWCGITKGGLDPMFKVTVNIGPVPT | soluble
MEEEILSFVSIQSHVSSAGEKPIHVLDENPKFSRLHPSPSNIDSGEDSTSINKSNMESYGFSPVKIIEALIRETTAQGNVNMQRKSLFFPTQISDLFPAILNSKRKTG | soluble
MEEHLSVMYERLRQELPKLFLQSHDYSLYSLDVEFINEILNIRTKGRTWYILSLTLCRFLAWNYFAHLRLEVLQLTRHPENWTLQARWRLVGLPVHLLFLRFYKRDKDEHYRTYDAYSTFYLNSSGLICRHRLDKLMPSHSPPTPVKKLLVGALVALGLSEPEPDLNLCSKP | not soluble
MEEKKDFYDTDELRDFMALVEKTNDIKKIALFRILAFTGIRKGELLALEWKDYRKSTLDINKAISHSPVGYEILPPKANSNRLLSLDEKTCKILDELHQTYPESTRIFESENGGMLSPSKPRKWLLEITKEKEIEPIRIHAFRHTHASLLFESGMSLKQVQYRLGHADLKTTMNIYTHITKLEHHHHHH | soluble
MEEKLLVNLKENSYNIFIKKNILKNIGEEIKKIYFGNKIFIVTDENIAKLYLDKVKNNLSESGFEIKSLILKSGEETKSFNTLPKIYDSLLDFKLTRKDLIITLGGGVIGDLGGFAAATFLRGISFIQIPTSLLAQVDSSVGGKVGVDLERGKNLVGSFYQPKAVFIDPNVLLSLPEKFYRDGMAEVIKYGCIKDKTFFNKLLSLKNREEVMQHIEYIIHKCCFIKKTVVEADEKDFGDRMLLNFGHTLGHAIEKYYNFTGYTHGEAVAIGMYKITLESEKIGITKKGTSELIKSILMNYNLPYEIELRDNKSIVDAISLDKKNLGDTLKIILLKDIGESIIYNTTSKFFQEVR | not soluble
MEETVDQAANSRTISLPISRVRLIMKSSPDVSCINQDALFLTTKATELFVQHLALSSYENGPSKDTNTLSYSDLADTVEETETFQFLTDILPKKILARDYLKTLEEMEKEDDNM | not soluble
MEEVGGNGGPARIAECGKIGSGTINSNVVPSVNLPSPSVKPSVTPSVKKPPHVIRSDYSKPREKPAKVAKKPTVKNDKKPKPVAIVAPTGIIKTFKTTPNPNRNL | soluble
MEFEFIRNTLMGEYYVKCSMGHEIVGRWLQEEIGKDPTMIAQVEALIDKAFSLPSQEHTLTGTEISLMIQGDEVLVQENALSHDYDVEMESEFDFYDAESTASCGIEDFVALIEQWKDFLNI | not soluble
MEFLLLDDRENLKLAIIRKLEQQYSFSERKDRLCKQLAISPYLLERNITEINADLQRFGLINEMEISEKNNEILLSQSLRISSSIIEEYYLKDSLEFNLLKTIFFHQFTSIKKYGEKHGMSRTVVYKIVDHIRKELGQYGIKLSKNLQLSGNEMAIRQYFTMLYYRIYKDSEELYNQTDLRAVNQLLAQLKGSYENITNFHLFKHYVLVALERTQRKANYFLSQEENPFAFDEESSIYQEIQSWINEVMKATHAEKNAEIQGIIGNLSVYQSELISEHLLSSHNEAITATKTLFFSYMPFTISDEEFYQEIVPIIYQHRFITPFIDITLRIMDLEFFQERYPIVFNSCRQFLFALDCSAFEFSKLSLFFDLLLVLSRLYDQRNEKSTINLYVNFTQGEKYTQFIKEQIKIFESFSIHFHSAIRPDTDLVVSDYLPKTLFSVKCLIWLAPPRASDWQNFGNEIVRINKELQQTKQRKSE | not soluble
MEFRQLRSFVEVVRQGSFTQAAQVRHASQSTISKQVAQLEQSLGVQVLERNGPHVRLTDAGAVVFRRAEEMLRLRRDLLSELDDLSQLNRGELRLGLPLLGADALFAQRFAEYRRRYPNIAVHLVEGGSKTMEQAVLAGELELAGSLTPADDGFDYQPFCNEPLDVLLPAGHPKAAAASVALGELADSPFLLYQQSFTLNDRLLRACLEAGFSPREGGRSGQADFLGALVAANQGVVLLPRVIAREIERPGVVRVLLREPDLRWDIAFIWRRGGYLSRAAQAWLELLREQPLEESPA | not soluble
MEFYSQSRFSNWVNKIAETELDEDNPETFAVFDQMLEDVIIACLSIIRAVKEREIRKADAVKEVEKILGLIPNHDFGDELKNELFQFTLESIKAVLLSFRLYFEGKISKKSFEALLKDALKKEQSGDYEGSLNAVAQMGAKVIKGEQLPELDIPEDSAVISWIDGIDAISSVLELSKIDAPTE | not soluble
MEGAVIKVIGLGGAGNNAVNRMIEAGLSGVEFIAANTDAQVLAKSLADHRIQLGEKLTRGLGAGANPEIGEKAALEAEDLIAEALEGADLVFITAGMGGGTGTGSAPVVADIAKRLGALTVAVVTRPFSFEGPKRMRAAEEGIKKLKERVDAMVVVQNDRLLSAVDKKMTLKDAFLIADRVLYHGVKGITDVINLPGLINVDFADVKALLEGAGQVLMGIGAGRGENRVEEAAKSAIHSPLLERSIEGAKRLLLNVVGSEELSLMEAAEVVERIREATGHEDVDILYGVTYDERAQDELRVILIAAGFAESTVVPRPARPVDFPTGHVDLTNYDIPAFIRYGDGDYPPRRGN | soluble
MEGLQRSTISFRRQGSSGIVFDDRLIAELNKSGNNEQKDESQRDEQPKPMSESSEQVKPIDEKDKLRPIKTGGGAPGGIERSRSNGGGAQRHHRTTGRVSPAVDPPSPRISSCGCCSAFGKNPPGKKVNPRKRPPKRRSR | not soluble
MEGQTHDAQNNVPEHDNPLMNVKNPSSNLFSKKDAQCLSVLCNGKWLQIVRSSPKVSCEASTCPSHILTKVGENYVAESEKMHKKVISFSSKTFSQGTLQFTMRANGTPHFVFKLENQKDVYVASLSSNVQDQNSYMIHLQRGESSASSSHLVGRINVSTLFSEKVLEREFVLFSSNGENLKIPRTRKNRGLSKKVVHAVKNERRTARLSRTSFIPDLGSWDEQFQAQNYDCLLKNKLPTNLETLAVVVKQETIEDEIGGWGLKFLKRSPMFQRSNDASETETSTSSISMNVVIPSGIHGGPEDGPSSLIERWKSQGNCDCGGWDLCCSLTLLKGQPRKDQYFELFIEVKLSFISSNTSIL | not soluble
MEGVQEVEIDAPLSGWHPAEGEDASFSQSINYPASSVNMADDQNISAQIRGKIKNYAAAGKVQQGRLVVNGASMPQRIESDGSFARPYIFTEGSNSVQVISPDGQSRQKMQFYSTPGTGTIRARLRLVLSWDTDNTDLDLHVVTPDGEHAWYGNTVLKNSGALDMDVTTGYGPEIFAMPAPIHGRYQVYINYYGGRSETELTTAQLTLITDEGSVNEKQETFIVPMRNAGELTLVKSFDWLEHHHHHH | not soluble
MEIDEGKYECEACGYIYEPEKGDKFAGIPPGTPFVDLSDSFMCPACRSPKNQFKSIKKVIAGFAENQKYG | soluble
MEIGVVGKPNVGKSTFFSAATLVDVEIANYPFTTIEANVGVTYAITDHPCKELGCSPNPQNYEYRNGLALIPVKMVDVAGLVPGAHEGRGLGNKFLDDLRMASALIHVVDATGKTDPEGQPTDYHDPVEDIEFLEREIDYWIYGILSKGWDKFAKRIKLQKIKLESAIAEHLSGIGVNENDVWEAMHKLNLPEDPTKWSQDDLLAFASEIRRVNKPMVIAANKADAASDEQIKRLVREEEKRGYIVIPTSAAAELTLRKAAKAGFIEYIPGASEFKVLRDMSEKQKRALMVIKEKVLDRFGSTGVQEVINRVVFDLLKLIPVYPVHDENKLTDQFGNVLPHVFLMKKGSTPRDLAFKVHTDLGKGFLYAINARTKRRVGEDYELQFNDIVKIVSVTR | soluble
MEILYIKGDATAPIGSGVKVITHICNDIGGWGKGFVLALSKKWKMPEEAYRQWYKSQEEFTLGAVQFVNVENKLYVANMIGQHGIYKDSKGLPPIRYDAVRQCLKEVALFTIAHKASVHMPRIGCGLAGGKWELMEQIIKEELITKEIAVTVYDLMAGDPLEHHHHHH | soluble
MEKIWLDSYEKGVSAEIDITQYNSVSDVFRQSVEKFADQPAFQNMGKTLTYAETGKLATDFASYLQNVLKLPRGERVAIMLPNVLQYPVALFGILQAGLVAVNTNPLYTPRELEHQLKDSGATAIIVLENFANTLELVLPRTQIKHVIVASVGEMFGLLKGSLINFVIRKIKKMVPEYRIRETVSFQTALKEGAKHVFQPVALNREDTALLQYTGGTTGVAKGAVLSHGNICANMLQAKEWIKNQLREGKETVIAALPLYHIFALTVNLMIFANAGSKIILITNPRDMKGFIGELKKQRVNVFIGVNTLFNAMVNRPDFAEVDFSELRLTLGGGMATQKAVAEKWKKITGTPIVEAYGLTEASPGVCCNPLNIESYSGSIGLPVSSTEVELRDANGKEVPVGQPGELWVKGPQVMQGYWNRPEETAKAIDARGFLETGDIAVMDEKGWLKLVDRKKDLVVVSGFNVYPNEIEEVIAHHGKVMEVACIGVPDEKTGEALKVFVVKKDPSLTKEELIAFCRTELTAYKVPKNIEFRDELPKSNVGKILRRELRQSTGK | not soluble
